From patent US20260070986A1 (AFFIMED, published 2026)

Legend:
[1] = molecular target: T1, human CD16A (158F) on transfected CHO cells (cAg_34) (human, UniProt P08637 17-254); experiment: flow cytometry on huCD16A-transfected CHO cells (cAg_34), one-site fit of MFI, mean of 3 experiments
T1 construct: Exact cell-anchored construct not described; also called huCD16A
Method: (§1) After washing in FACS buffer, cells were incubated in 50 μL FACS buffer without antibodies or with titrated antibodies starting at a concentration of 100 μg/mL followed by ten 5-fold serial dilutions for 30 min on ice in the dark. After washing twice, cells were incubated with APC-conjugated goat anti-human IgG (H+L)-APC (Dianova, cat. 109-136-088) for 30 min on ice in the dark. […] After washing, binding was measured by flow cytometry and mean fluorescence intensities (MFI) of cell samples were calculated and corrected for background staining using control cells stained with secondary antibodies only.
(§2) Equilibrium dissociation constants (KD) of antibody binding were calculated by plotting MFI values and fitting a non-linear regression model for one-site binding to hyperbolic dose-response curves using GraphPad Prism.

[2] = molecular target: T2, recombinant human FcγRI (CD64), biotinylated (human, UniProt P12314 16-288, limits assumed, site-directed biotinylation at AviTag); experiment: SPR (Biacore), 37 °C, biotin-captured human CD64 as ligand, steady-state plot; left-hand column, no heading on the sheet
T2 construct: also called human CD64
Method: (§3) FIG. 20: SPR interaction analysis of antibody binding to CD64 and murine CD16-2. […] Affinity parameters were evaluated for interaction with receptors using a Steady State Binding model.

[3] = molecular target: T3, recombinant human FcγRIIA (CD32A), biotinylated (human, UniProt P12318 34-218, limits assumed, site-directed biotinylation at AviTag); experiment: SPR (Biacore), 37 °C, biotin-captured human CD32A as ligand, steady-state plot; left-hand column, no heading on the sheet
T3 construct: also called human CD32A
T3 sequence (looked up): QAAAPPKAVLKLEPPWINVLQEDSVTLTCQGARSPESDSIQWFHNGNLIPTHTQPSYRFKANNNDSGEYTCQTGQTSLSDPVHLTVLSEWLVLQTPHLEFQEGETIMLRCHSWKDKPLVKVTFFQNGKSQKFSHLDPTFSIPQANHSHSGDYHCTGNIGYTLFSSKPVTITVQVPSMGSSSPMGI
Method: FIG. 21: SPR interaction analysis of antibody binding to CD32. […] Affinity parameters were evaluated for interaction with receptors using a Steady State Binding model.

[4] = molecular target: T1, human CD16A (158F) on transfected CHO …; experiment: flow cytometry on huCD16A-transfected CHO cells (cAg_34), one-site fit of MFI, experiment 2
Method: as §1, §2

[5] = molecular target: T1, human CD16A (158F) on transfected CHO …; experiment: flow cytometry on huCD16A-transfected CHO cells, anti-human IgG-APC detection
Method: To analyze binding of different antibody constructs to CHO cells transfected with human CD16A (cAg_34), relative to CD16 expression by flow cytometry, 1-2×10⁵ were resuspended in 100 μL FACS buffer (PBS (Invitrogen, cat.: 14190-169) containing 2% heat-inactivated FCS (Invitrogen, cat.: 10270-106), and 0.1% sodium azide (Roth, Karlsruhe, Germany, cat.: A1430.0100)) in round-bottom 96-well microtiter plates. After washing in FACS buffer, cells were incubated in 50 μL FACS buffer without antibodies or with titrated antibodies starting at a concentration of 100 μg/mL followed by ten 5-fold serial dilutions for 30 min on ice in the dark. After washing twice, cells were incubated with APC-conjugated goat anti-human IgG (H+L)-APC (Dianova, cat. 109-136-088) for 30 min on ice in the dark. […] After washing, binding was measured by flow cytometry and mean fluorescence intensities (MFI) of cell samples were calculated and corrected for background staining using control cells stained with secondary antibodies only.
as §2

[6] = molecular target: T1, human CD16A (158F) on transfected CHO …; experiment: flow cytometry on huCD16A-transfected CHO cells (cAg_34), one-site fit of MFI, experiment 1
Method: as §1, §2

[7] = molecular target: T4, recombinant murine FcγRIV (CD16-2), biotinylated (murine, UniProt A0A0B4J1G0 21-203, biotinylated (site not stated)); experiment: SPR (Biacore), 37 °C, biotin-captured murine CD16-2 as ligand, steady-state plot; left-hand column, no heading on the sheet
T4 construct: also called murine CD16-2; mouse CD16-2; not shown: biotinylation or purification tag (AviTag according to our card)
T4 sequence: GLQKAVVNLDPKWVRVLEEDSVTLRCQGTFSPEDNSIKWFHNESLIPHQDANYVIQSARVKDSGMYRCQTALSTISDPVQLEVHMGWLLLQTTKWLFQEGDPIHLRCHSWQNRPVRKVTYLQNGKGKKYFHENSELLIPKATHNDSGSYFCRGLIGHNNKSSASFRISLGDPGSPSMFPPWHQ
Method: as §3

[8] = molecular target: T5, recombinant murine neonatal Fc receptor (FcRn), biotinylated (murine, UniProt Q61559 22-297, limits assumed, site-directed biotinylation at AviTag); experiment: SPR (Biacore), 37 °C, pH 6.0, biotin-captured murine FcRn as ligand, steady-state affinity fit
T5 construct: also called murine FcRn
T5 sequence (looked up): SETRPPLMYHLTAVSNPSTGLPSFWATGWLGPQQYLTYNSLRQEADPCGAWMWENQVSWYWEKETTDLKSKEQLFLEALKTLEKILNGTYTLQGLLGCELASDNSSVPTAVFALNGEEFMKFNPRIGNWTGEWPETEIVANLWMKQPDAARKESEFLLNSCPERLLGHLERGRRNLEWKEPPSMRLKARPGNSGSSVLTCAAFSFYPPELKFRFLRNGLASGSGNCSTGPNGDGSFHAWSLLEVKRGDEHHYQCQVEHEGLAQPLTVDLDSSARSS
Method: Affinity parameters were evaluated for interaction with human FcRn, cynomolgus FcRn or murine FcRn using a Steady State Binding model (D-F).

T1 sequence (P08637 17-254 limits assumed): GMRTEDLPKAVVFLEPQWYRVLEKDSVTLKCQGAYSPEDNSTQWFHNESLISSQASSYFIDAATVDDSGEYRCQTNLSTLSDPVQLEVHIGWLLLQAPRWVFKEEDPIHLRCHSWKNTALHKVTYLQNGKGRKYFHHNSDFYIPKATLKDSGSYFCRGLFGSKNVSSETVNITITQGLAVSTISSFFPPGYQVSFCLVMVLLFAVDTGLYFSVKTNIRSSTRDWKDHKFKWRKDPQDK
T2 sequence (P12314 16-288 limits assumed): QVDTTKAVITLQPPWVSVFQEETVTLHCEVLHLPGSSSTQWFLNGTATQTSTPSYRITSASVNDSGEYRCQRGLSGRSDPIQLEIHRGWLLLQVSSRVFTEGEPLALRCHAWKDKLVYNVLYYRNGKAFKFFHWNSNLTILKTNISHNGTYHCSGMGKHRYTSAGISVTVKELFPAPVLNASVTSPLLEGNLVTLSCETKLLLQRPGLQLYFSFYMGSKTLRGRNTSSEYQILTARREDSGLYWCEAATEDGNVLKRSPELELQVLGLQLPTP

B1: scFv-IgAb_268 (CD123-1xCD16a1) (bispecific antibody)
heavy: QVQLQQSGAEVKKPGASVKVSCKASGYTFTDYYMKWVKQSHGKSLEWMGDIIPSNGATFYNQKFKGKATLTVDRSTSTAYMELSSLRSEDTAVYYCARSHLLRASWFAYWGQGTLVTVSSASTKGPSVFPLAPSSKSTSGGTAALGCLVKDYFPEPVTVSWNSGALTSGVHTFPAVLQSSGLYSLSSVVTVPSSSLGTQTYICNVNHKPSNTKVDKKVEPKSCDKTHTCPPCPAPEFEGGPSVFLFPPKPKDTLMISRTPEVTCVVVAVSHEDPEVKFNWYVDGVEVHNAKTKPREEQYNSTYRVVSVLTVLHQDWLNGKEYKCKVSNKALPAPIEKTISKAKGQPREPQVYTLPPSREEMTKNQVSLTCLVKGFYPSDIAVEWESNGQPENNYKTTPPVLDSDGSFFLYSKLTVDKSRWQQGNVFSCSVMHEALHNHYTQKSLSLSPGGGGGSGGGGSGGGGSGGGGSGGGGSGGGGSSYELTQPLSVSVALGQTARITCGGNNIGSKSVHWYQQKPGQAPVLVIYQDKKRPSGIPERFSGSNSGNTATLTISRAQAGDEADYYCQVWDDYIVLFGCGTKLTVLGGSGGSGGSGGSGGSGGSGGSQVQLVQSGAEVKKPGASVKVSCKASGYTFTNYYMQWVRQAPGQCLEWMGIINPSGGVTSYAQKFQGRVTMTRDTSTSTVYMELSSLRSEDTAVYYCARGSAYYYDFADYWGQGTLVTVSS
light: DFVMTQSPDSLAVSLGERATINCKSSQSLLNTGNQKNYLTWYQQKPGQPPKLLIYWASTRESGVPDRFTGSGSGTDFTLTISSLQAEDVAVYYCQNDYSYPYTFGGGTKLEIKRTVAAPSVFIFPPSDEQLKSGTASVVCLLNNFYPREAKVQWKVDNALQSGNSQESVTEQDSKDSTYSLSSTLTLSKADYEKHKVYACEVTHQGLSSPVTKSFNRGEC
notes: also called AFM28; CD123xCD16A scFv-IgAb_268
[1]
  Kd: 16.3 nM
[2]
  binding result: no binding
[3]
  binding result: no binding
[4]
  Kd: 7.8 nM
[5]
  EC50 (read off the curve): ~8 nM
[6]
  Kd: 17.7 nM
[7]
  binding result: no binding
[8]
  Kd: 72 nM
